From patent US20090181909

Key:
[1] = test system: T1, D-AVP (D-(Arg8)-vasopressin, all-D peptide) (Homo sapiens); experiment: competition; settings: biotinylated D-AVP; selection buffer
T1 sequence: CYFQNCPRG

[2] = test system: T2, L-AVP ((Arg8)-vasopressin) (Homo sapiens); experiment: ITC; settings: L-RNA, hexaethylene glycol (PEG) spacer between Helix 2 and Helix 1, 37 C, 20 mM Tris pH 7.4, 150 mM NaCl, 5 mM KCl, 1 mM MgCl2, 1 mM CaCl2
T2 sequence: CYFQNCPRG

L-oxytocin = biological target: T3, L-oxytocin (UniProt P01178); experiment: ITC; settings: L-RNA; hexaethylene glycol (PEG) spacer between Helix 2 and Helix 1; 3'-C6-amino 40 kDa PEG; 37 C; same buffer; activity 69.8%; about ten times lower affinity than …
T3 sequence: CYIQNCPLG

## AGUGUGCGUGGUUAAUAAUGGGGUAGGGCUUGGAUGGGUAGUACACU [CHF-157-B4 (CHF-F-000)]
[1]
  Kd: 9.5 nM

## GGGGUAGGGCUUGGAUGGGUAGUACACGUGUGCGUGGU [CHF-F-037 spiegelmer]
[2]; activity 46.8%
  Kd: 1.7 nM

## GGGGUAGGGCUUGGAUGGGUAGUACACGUGUGCGUGGU [CHF-F-037-3'PEG spiegelmer]
[2]; 3'-C6-amino 40 kDa PEG, activity 59.1%
  Kd: 1.3 nM
L-oxytocin
  Kd: 16 nM
